Patent US20240190962A1 (IMMUNOWAKE, published 2024)
Where two headings read alike, the source gives them in different places.

T1: human IL-2 receptor (IL-2Rα, IL-2Rβ, IL-2Rγ) (human, UniProt P01589 22-272; P14784 27-551; P31785 23-369)
T1 sequence (looked up) 1: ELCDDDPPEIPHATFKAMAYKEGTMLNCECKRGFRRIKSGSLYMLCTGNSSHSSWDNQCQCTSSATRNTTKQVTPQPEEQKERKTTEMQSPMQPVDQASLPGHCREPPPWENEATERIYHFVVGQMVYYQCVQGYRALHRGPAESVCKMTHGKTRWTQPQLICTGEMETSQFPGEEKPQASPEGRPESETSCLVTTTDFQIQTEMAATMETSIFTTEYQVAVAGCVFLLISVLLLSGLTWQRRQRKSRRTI
T1 sequence (looked up) 2: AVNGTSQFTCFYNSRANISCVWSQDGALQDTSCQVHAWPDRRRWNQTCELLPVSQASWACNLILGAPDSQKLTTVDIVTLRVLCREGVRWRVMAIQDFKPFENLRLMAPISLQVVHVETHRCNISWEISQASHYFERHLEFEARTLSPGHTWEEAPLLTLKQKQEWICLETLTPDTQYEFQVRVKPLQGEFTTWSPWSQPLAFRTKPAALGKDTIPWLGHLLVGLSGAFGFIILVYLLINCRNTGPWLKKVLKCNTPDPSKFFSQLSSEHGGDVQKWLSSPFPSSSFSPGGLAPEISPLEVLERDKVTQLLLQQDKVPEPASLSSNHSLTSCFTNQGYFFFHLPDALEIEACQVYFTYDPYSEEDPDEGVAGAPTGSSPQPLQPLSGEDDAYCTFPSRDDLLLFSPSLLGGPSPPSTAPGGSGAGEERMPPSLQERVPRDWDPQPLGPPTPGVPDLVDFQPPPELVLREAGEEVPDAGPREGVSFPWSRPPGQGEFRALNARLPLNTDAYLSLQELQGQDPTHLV
T1 sequence (looked up) 3: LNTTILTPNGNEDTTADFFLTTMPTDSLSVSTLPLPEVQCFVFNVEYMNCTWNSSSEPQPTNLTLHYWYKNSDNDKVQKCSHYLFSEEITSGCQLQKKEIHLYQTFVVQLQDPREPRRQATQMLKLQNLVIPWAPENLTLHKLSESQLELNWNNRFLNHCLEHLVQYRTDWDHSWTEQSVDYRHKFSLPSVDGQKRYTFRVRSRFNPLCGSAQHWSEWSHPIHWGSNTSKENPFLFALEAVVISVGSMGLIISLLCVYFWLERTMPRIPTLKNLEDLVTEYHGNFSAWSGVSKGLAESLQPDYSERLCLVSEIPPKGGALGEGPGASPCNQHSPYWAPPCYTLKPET


Key:
[1] = biological target: human IL-12 receptor complex (IL-12Rβ1, IL-12Rβ2) (human, UniProt P42701 24-662; Q99665 24-862); assay: cell-based or functional assay
CD4 on CD4+ T cells = biological target: T2, CD4 on CD4+ T cells (UniProt P01730 26-458, limits assumed); assay: FACS
T2 construct: whole, on cells

[2] = biological target: T1, human IL-2 receptor (IL-2Rα, IL-2Rβ, …); assay: cell-based or functional assay
[3] = biological target: T1, human IL-2 receptor (IL-2Rα, IL-2Rβ, …); assay: cell-based or functional assay; remark: listed apart in the source

Sequence of human IL-12 receptor complex (IL-12Rβ1, IL-12Rβ2) (Q99665 24-862, chain 2 of 2, other chains not shown): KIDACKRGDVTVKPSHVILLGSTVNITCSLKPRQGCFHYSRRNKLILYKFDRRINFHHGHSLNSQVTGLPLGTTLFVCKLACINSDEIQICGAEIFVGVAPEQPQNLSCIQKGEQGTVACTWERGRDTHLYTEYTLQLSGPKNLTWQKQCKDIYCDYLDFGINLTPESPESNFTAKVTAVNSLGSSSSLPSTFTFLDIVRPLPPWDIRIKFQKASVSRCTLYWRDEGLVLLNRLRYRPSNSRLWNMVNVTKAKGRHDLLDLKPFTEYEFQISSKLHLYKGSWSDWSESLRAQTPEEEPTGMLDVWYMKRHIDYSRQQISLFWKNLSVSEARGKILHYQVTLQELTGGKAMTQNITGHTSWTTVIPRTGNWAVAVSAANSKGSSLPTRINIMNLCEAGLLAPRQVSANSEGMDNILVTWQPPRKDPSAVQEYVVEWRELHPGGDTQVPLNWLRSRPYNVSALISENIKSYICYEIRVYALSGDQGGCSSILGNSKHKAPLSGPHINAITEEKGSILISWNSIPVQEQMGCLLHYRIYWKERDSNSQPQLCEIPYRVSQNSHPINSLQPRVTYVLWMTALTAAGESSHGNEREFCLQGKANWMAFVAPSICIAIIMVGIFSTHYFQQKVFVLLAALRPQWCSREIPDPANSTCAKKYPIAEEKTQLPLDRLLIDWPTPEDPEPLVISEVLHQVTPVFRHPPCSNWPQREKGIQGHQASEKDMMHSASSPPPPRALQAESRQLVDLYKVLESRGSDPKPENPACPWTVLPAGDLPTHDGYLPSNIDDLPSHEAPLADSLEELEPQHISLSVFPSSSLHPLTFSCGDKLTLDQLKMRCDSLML

IL-12 biological activity (IFN-γ release), CD4+ T cells [1] [%]	IL-12 biological activity (IFN-γ release), CD8+ T cells [1] [%]	binding result (CD4 on CD4+ T cells)	Percent IL-2 signal transduction (HEK-IL-2 reporter assay) [2] [%]	Percent T-cell proliferation (PBMC proliferation assay) [2] [%]	Percent IL-2 signal transduction (HEK-IL-2 reporter assay) [3] [%]	Percent IL-2 signal transduction (HEK-PD-1-IL-2 reporter assay) [3] [%]	Binder
21	56	no binding					Fab-IL-12(WT)-Fc-CD8 Ab (other, copies: 2 + 1 + 1) light: DIQMTQTTSSLSASLGDRVTISCRASQDINNYLNWYQQKSDGTIKLLIYYTSRSYSGVPSRFSGSGSGTDYSLTISNRRQEDIATYFCQQGKTLPWTFGGGTKLEIKRTVAAPSVFIFPPSDEQLKSGTASVVCLLNNFYPREAKVQWKVDNALQSGNSQESVTEQDSKDSTYSLSSTLTLSKADYEKHKVYACEVTHQGLSSPVTKSFNRGEC heavy 1: EVQLQQSGPELVKPGASVKMSCKASGYTFTDYYMKWVKQSHGKSLEWIGHINPNNDDTFYTQKFKGRATLTVDKSSSTAYMQLNSLTSEDSAVYYCVRDDYDGGWFAYWGQGTLVTVSSASTKGPSVFPLAPSSKSTSGGTAALGCLVKDYFPEPVTVSWNSGALTSGVHTFPAVLQSSGLYSLSSVVTVPSSSLGTQTYICNVNHKPSNTKVDKKVEPKSCDKTHTCPPCPAPEKKGGPSVFLFPPKPKDTLMISRTPEVTCVVVDVSHEDPEVKFNWYVDGVEVHNAKTKPREEQYNSTYRVVSVLTVLHQDWLNGKEYKCKVSNKALPAPIEKTISKAKGQPREPQVYVLPPSREEMTKNQVSLLCLVKGFYPSDIAVEWESNGQPENRYMTWPPVLDSDGSFFLYSKLTVDKSRWQQGNVFSCSVMHEALHNHYTQKSLSLSPGK heavy 2: EVQLQQSGPELVKPGASVKMSCKASGYTFTDYYMKWVKQSHGKSLEWIGHINPNNDDTFYTQKFKGRATLTVDKSSSTAYMQLNSLTSEDSAVYYCVRDDYDGGWFAYWGQGTLVTVSSASTKGPSVFPLAPSSKSTSGGTAALGCLVKDYFPEPVTVSWNSGALTSGVHTFPAVLQSSGLYSLSSVVTVPSSSLGTQTYICNVNHKPSNTKVDKKVEPKSCDKPGSGIWELKKDVYVVELDWYPDAPGEMVVLTCDTPEEDGITWTLDQSSEVLGSGKTLTIQVKEFGDAGQYTCHKGGEVLSHSLLLLHKKEDGIWSTDILKDQKEPKNKTFLRCEAKNYSGRFTCWWLTTISTDLTFSVKSSRGSSDPQGVTCGAATLSAERVRGDNKEYEYSVECQEDSACPAAEESLPIEVMVDAVHKLKYENYTSSFFIRDIIKPDPPKNLQLKPLKNSRQVEVSWEYPDTWSTPHSYFSLTFCVQVQGKSKREKKDRVFTDKTSATVICRKNASISVRAQDRYYSSSWSEWASVPCSGGGGSGGGGSGGGGSGGGGSGRNLPVATPDPGMFPCLHHSQNLLRAVSNMLQKARQTLEFYPCTSEEIDHEDITKDKTSTVEACLPLELTKNESCLNSRETSFITNGSCLASRKTSFMMALCLSSIYEDLKMYQVEFKTMNAKLLMDPKRQIFLDQNMLAVIDELMQALNFNSETVPQKSSLEEPDFYKTKIKLCILLHAFRIRAVTIDRVMSYLNASDKTHTCPPCPAPEDEGGPSVFLFPPKPKDTLMISRTPEVTCVVVDVSHEDPEVKFNWYVDGVEVHNAKTKPREEQYNSTYRVVSVLTVLHQDWLNGKEYKCKVSNKALPAPIEKTISKAKGQPREPQVYVYPPSREEMTKNQVSLTCLVKGFYPSDIAVEWESNGQPENNYKTTPPVLDEDGSFALVSKLTVDKSRWQQGNVFSCSVMHEALHNHYTQKSLSLSPGK
2.1	24.2	no binding					Fab-IL-12(E59A)-Fc-CD8 Ab (other, copies: 2 + 1 + 1) light: DIQMTQTTSSLSASLGDRVTISCRASQDINNYLNWYQQKSDGTIKLLIYYTSRSYSGVPSRFSGSGSGTDYSLTISNRRQEDIATYFCQQGKTLPWTFGGGTKLEIKRTVAAPSVFIFPPSDEQLKSGTASVVCLLNNFYPREAKVQWKVDNALQSGNSQESVTEQDSKDSTYSLSSTLTLSKADYEKHKVYACEVTHQGLSSPVTKSFNRGEC heavy 1: EVQLQQSGPELVKPGASVKMSCKASGYTFTDYYMKWVKQSHGKSLEWIGHINPNNDDTFYTQKFKGRATLTVDKSSSTAYMQLNSLTSEDSAVYYCVRDDYDGGWFAYWGQGTLVTVSSASTKGPSVFPLAPSSKSTSGGTAALGCLVKDYFPEPVTVSWNSGALTSGVHTFPAVLQSSGLYSLSSVVTVPSSSLGTQTYICNVNHKPSNTKVDKKVEPKSCDKTHTCPPCPAPEKKGGPSVFLFPPKPKDTLMISRTPEVTCVVVDVSHEDPEVKFNWYVDGVEVHNAKTKPREEQYNSTYRVVSVLTVLHQDWLNGKEYKCKVSNKALPAPIEKTISKAKGQPREPQVYVLPPSREEMTKNQVSLLCLVKGFYPSDIAVEWESNGQPENRYMTWPPVLDSDGSFFLYSKLTVDKSRWQQGNVFSCSVMHEALHNHYTQKSLSLSPGK heavy 2: EVQLQQSGPELVKPGASVKMSCKASGYTFTDYYMKWVKQSHGKSLEWIGHINPNNDDTFYTQKFKGRATLTVDKSSSTAYMQLNSLTSEDSAVYYCVRDDYDGGWFAYWGQGTLVTVSSASTKGPSVFPLAPSSKSTSGGTAALGCLVKDYFPEPVTVSWNSGALTSGVHTFPAVLQSSGLYSLSSVVTVPSSSLGTQTYICNVNHKPSNTKVDKKVEPKSCDKPGSGIWELKKDVYVVELDWYPDAPGEMVVLTCDTPEEDGITWTLDQSSEVLGSGKTLTIQVKAFGDAGQYTCHKGGEVLSHSLLLLHKKEDGIWSTDILKDQKEPKNKTFLRCEAKNYSGRFTCWWLTTISTDLTFSVKSSRGSSDPQGVTCGAATLSAERVRGDNKEYEYSVECQEDSACPAAEESLPIEVMVDAVHKLKYENYTSSFFIRDIIKPDPPKNLQLKPLKNSRQVEVSWEYPDTWSTPHSYFSLTFCVQVQGKSKREKKDRVFTDKTSATVICRKNASISVRAQDRYYSSSWSEWASVPCSGGGGSGGGGSGGGGSGGGGSGRNLPVATPDPGMFPCLHHSQNLLRAVSNMLQKARQTLEFYPCTSEEIDHEDITKDKTSTVEACLPLELTKNESCLNSRETSFITNGSCLASRKTSFMMALCLSSIYEDLKMYQVEFKTMNAKLLMDPKRQIFLDQNMLAVIDELMQALNFNSETVPQKSSLEEPDFYKTKIKLCILLHAFRIRAVTIDRVMSYLNASDKTHTCPPCPAPEDEGGPSVFLFPPKPKDTLMISRTPEVTCVVVDVSHEDPEVKFNWYVDGVEVHNAKTKPREEQYNSTYRVVSVLTVLHQDWLNGKEYKCKVSNKALPAPIEKTISKAKGQPREPQVYVYPPSREEMTKNQVSLTCLVKGFYPSDIAVEWESNGQPENNYKTTPPVLDEDGSFALVSKLTVDKSRWQQGNVFSCSVMHEALHNHYTQKSLSLSPGK
			2.5	45			Fab-IL-2 mutant-Fc-CD3 Ab (other) light: EIVMTQSPGTLSLSPGESATLSCSASLSVSFMHWFQQKPGHAPRLLIYRTSNLASGVPDRFSGSGSGTDFTLTISRLEPEDFAVYYCQQRSSDPPTFGQGTRLEIKRTVAAPSVFIFPPSDEQLKSGTASVVCLLNNFYPREAKVQWKVDNALQSGNSQESVTEQDSKDSTYSLSSTLTLSKADYEKHKVYACEVTHQGLSSPVTKSFNRGEC heavy 1: EVQLVESGGGLVQPGRSLRLSCTASGFTFSYFWMNWVRQAPGKGLEWVGEIRLRSDNYATHYAESVKGRFTISRDDSKSIAYLQMNSLKTEDTALYYCTRDWEFTYWGQGTTVTVSSASTKGPSVFPLAPSSKSTSGGTAALGCLVKDYFPEPVTVSWNSGALTSGVHTFPAVLQSSGLYSLSSVVTVPSSSLGTQTYICNVNHKPSNTKVDKKVEPKSCDKTHTCPPCPAPEKKGGPSVFLFPPKPKDTLMISRTPEVTCVVVDVSHEDPEVKFNWYVDGVEVHNAKTKPREEQYNSTYRVVSVLTVLHQDWLNGKEYKCKVSNKALPAPIEKTISKAKGQPREPQVYVLPPSREEMTKNQVSLLCLVKGFYPSDIAVEWESNGQPENRYMTWPPVLDSDGSFFLYSKLTVDKSRWQQGNVFSCSVMHEALHNHYTQKSLSLSPGK heavy 2: EVQLVESGGGLVQPGRSLRLSCTASGFTFSYFWMNWVRQAPGKGLEWVGEIRLRSDNYATHYAESVKGRFTISRDDSKSIAYLQMNSLKTEDTALYYCTRDWEFTYWGQGTTVTVSSASTKGPSVFPLAPSSKSTSGGTAALGCLVKDYFPEPVTVSWNSGALTSGVHTFPAVLQSSGLYSLSSVVTVPSSSLGTQTYICNVNHKPSNTKVDKKVEPKSCDKPAPTSSSTKKTQLQLEHLLLDLQMILNGINNYKNPKLTDMLTFEFYMPKKATELKHLQCLERELKPLEEVLNLAQSKNFHLRPRDLISNINVIVLELKGSETTFMCEYADETATIVEFLNRWITFCQSIISTLTDKTHTCPPCPAPEDEGGPSVFLFPPKPKDTLMISRTPEVTCVVVDVSHEDPEVKFNWYVDGVEVHNAKTKPREEQYNSTYRVVSVLTVLHQDWLNGKEYKCKVSNKALPAPIEKTISKAKGQPREPQVYVYPPSREEMTKNQVSLTCLVKGFYPSDIAVEWESNGQPENNYKTTPPVLDEDGSFALVSKLTVDKSRWQQGNVFSCSVMHEALHNHYTQKSLSLSPGK
					0	0	anti-PD-1 antibody nivolumab (Opdivo) (antibody, human IgG4 S228P, kappa, V domains shown) VH: QVQLVESGGGVVQPGRSLRLDCKASGITFSNSGMHWVRQAPGKGLEWVAVIWYDGSKRYYADSVKGRFTISRDNSKNTLFLQMNSLRAEDTAVYYCATNDDYWGQGTLVTVSS VL: EIVLTQSPATLSLSPGERATLSCRASQSVSSYLAWYQQKPGQAPRLLIYDASNRATGIPARFSGSGSGTDFTLTISSLEPEDFAVYYCQQSSNWPRTFGQGTKVEIKR
